Measured values taken from the emibetuzumab library of Makowski et al. (2022).

B1: VH:VL chains; a variant is named by its letters at X, in order (parent)
chain 1: QVQLVQSGAEVKKPGASVKVSCKASGYTFTDYXMHWVRQAPGQGLEWMGXVNPNXXXTTYNQKFEGRVTMTTDTSTSTAYMELRSLRSDDTAVYYCARXNXLDXWGQGTTVTVSS
chain 2: DIQMTQSPSSLSASVGDRVTITCSVSSSVSSIYLHWYQQKPGKAPKLLIYSTSNLASGVPSRFSGSGSGTDFTLTISSLQPEDFATYYCQVYSGYPLTFGGGTKVEIK

Variants of: B1
Test: yeast display scFab, FACS + sequencing
Summary of the method: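 Heavy-chain CDR mutant scFab yeast surface library, FACS-sorted after labelling with biotinylated ovalbumin (260 μg/mL in PBSB, 3 h, room temperature) or soluble membrane proteins (130 μg/mL, 20 min on ice), plus anti-Myc. Gates collected the top 25% and bottom 10% of binders, and samples from two replicates were deep sequenced. Non-specific binding call: a sequence was positive if found in ≥3 of 4 positive samples (membrane protein and ovalbumin pooled) and no negatives, and negative by the converse rule.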

Variant	non-specific binding call
FKGRGSLY	binds
FKGRGSLA	binds
YKRESAAV	binds
YKGRGSVD	binds
YKGRGSVY	binds
YKGRGFSD	binds
YKKRGAWS	binds
SKRRGSLS	binds
FKRGDAGD	binds
VKGRSVGY	binds
FKRGSSSY	binds
FKKGSVGD	binds
YKGRSSSS	binds
YKKTGYWV	binds
AKGRGDGA	no binding
YKGRGSWS	binds
YKGRGSWF	binds
YKRGDAGY	no binding
YKRGSSWD	binds
YKGRGYVA	binds
SKGRGAWV	binds
SKGRGAWD	binds
FKKGSSLD	binds
DKGTDVGA	binds
VKRATSWD	binds

Variant	non-specific binding call
YKRESAGY	binds
VKKESDSY	no binding
YKKTGDLY	no binding
YKGRGVGV	binds
YKGRGVGD	binds
YKGRGVGA	binds
YKGRGVGY	binds
VKREASVV	binds
SKKGDFWV	binds
VKGRGYGA	binds
YKKGAAGF	binds
DKGRSVGV	no binding
YKGRGYAA	binds
YKGRGYAV	binds
YKGRGYAD	binds
YKGRGSLF	binds
YKGRGSLA	binds
YKGRGSLY	binds
YKGRGSLV	binds
VKGTGFLD	binds
VKKEDDVV	no binding
FKRAGSLA	binds
YKRGSFVD	binds
YKRESSSV	binds
FKKGSYVF	binds

Variant	non-specific binding call
FKGRGVWV	binds
VKGRTSVY	no binding
FKRGSSLD	binds
FKRGSSLF	binds
YKRRDASD	binds
YKGRSASV	no binding
FKGRGFVV	binds
FKKGSSGV	binds
FKKGSSGD	binds
YKRGGSSY	no binding
VKRGSSSD	binds
YKRGSSGA	binds
YKRGSSGD	binds
YKRGSSGF	binds
YKRGDDSS	no binding
FKGRGAWV	binds
FKGRGAWS	binds
FKKGDAVS	binds
FKKEGYGD	binds
YKGRGFVY	binds
YKGRGYWY	binds
FKKKDASV	binds
YKRRDSVD	binds
YKRGSASV	binds
YKRGSASD	binds

Variant	non-specific binding call
FKKGSSAA	binds
SKRETAWS	binds
VKGRGSSF	no binding
YKRGDSGF	no binding
YKRRDAWV	binds
FKRKAAAA	binds
YKGRGALY	binds
YKGRGALS	binds
YKKGGSLA	binds
YKKGGSLD	binds
VKREAVGV	binds
FKKGSSWD	binds
YKRGDDLV	no binding
AKRGSAAV	binds
YKRGSDGA	binds
YKRGASVA	binds
YKGRGDAD	binds
FKRKNSAA	binds
YKRGSAGD	binds
YKRGSAGF	binds
VKRGSSAA	binds
YKGRGYGF	binds
YKGRGYGD	binds
YKGRGYGA	binds
YKRGAAWS	binds

Variant	non-specific binding call
DKRKGVAF	binds
YKRAAVWD	binds
VKGRGFWY	binds
VKKTGDLY	no binding
YKGRGYLV	no binding
DKGRGSSA	no binding
VKRGSSLF	binds
YKRRGSAA	binds
VKGRSFLV	binds
YKGRGDGD	no binding
YKGRGDGY	binds
SKKRGAWY	binds
SKKRGAWA	binds
YKGRGDWY	binds
VKKGSSLF	binds
SKGRSSLA	no binding
FKKRGAWS	binds
VKKESSGF	binds
YKRGGAGS	binds
YKRRDAVY	binds
FKGTDSSD	binds
YKGRGSAY	binds
YKGRGSAF	binds
VKGRSDAS	no binding
YKRGGSWD	binds
